Target: CD16V-BB-ζ chimeric receptor (human)
Experiment: cell-based or functional assay

For hu14.18K322A (antibody), the 24-hour cytotoxicity against NB1691 cells at 1:8 E:T was > 50%.

Source: patent publication EP3057986B1
